Measured values reported in PMC7609953, “Expression, Purification, Refolding, and Characterization of a Neverland Protein From Caenorhabditis elegans” (Frontiers in Bioengineering and Biotechnology, 2020).

Target: the molecule itself
Test: SEC; Superdex200 Increase 10/300 GL, 20 mM Tris-HCl, 150 mM NaCl, 1 mM DTT, pH 8.0, 1 ml/min; aldolase (158 kDa) and conalbumin (75 kDa) as calibration proteins; oligomeric state of the refolded protein

B1: Refolded His-tagged neverland protein from Caenorhabditis elegans (His_CeNVD) (enzyme)
chain: RQLERLKLLRRVGDMPPVFPNGWYCVCESEKLANNQIMEITVLGQFLSLIRSESGAVYITDSYCPHIGANFNIGGRVVRDNCIQCPFHGWIFSAETGKCVEVPYDEGRIPEQAKVTTWPCIERNNNIYLWYHCDGAEPEWEIPEITEITDGFWHLGGRTEHEVMCHIQEIPENGADIAHLNYLHKSAPPVTKGSDIIKTDLSDPQPAVQHVWDGKWEVKSEEDRHCGVMHLNQFMTFWGYKVPLTSSKLVAEQHGPGIVHMLFDFGIWGKGVVFQTVTPEEALLQRVRFRIFSNIPWFFVKFFMTVEAMQFERDVFIWSNKKYIKSPLLVKNDGPIQKHRRWFSQFYTENSPKMLKDGSLSNQAKSIFDW
stoichiometry N: 3
